# Paper PMC6197226 (2018)
# Tests used:
# [1] = target: p62 ZZ domain (aa 120-171) (human, UniProt Q13501 120-171)
# [2] = target: p62 ZZ domain (aa 115-190) (human, UniProt Q13501 115-190); experiment: MST
Binder,Kd [1] [µM],Kd [2] [nM]
REEE [REEE peptide],5.6,1900
RAEE [RAEE peptide],14,3200
